Experimental data taken from patent publication US20250242012A1.

Biological target: soluble HRP-conjugated spike-RBD construct (HRP-RBD) of the SARS-CoV-2 neutralizing antibody ELISA a (SARS-CoV-2) (UniProt P0DTC2)

## positive control reagent of the SARS-CoV-2 neutralizing antibody ELISA assay kit (Creative Diagnostics)
  percent inhibition: 82.5%
